T1: Ebola virus (EBOV) glycoprotein (GP), wild-type, construct not stated (Ebola virus (EBOV), UniProt Q05320 33-650)
T1 sequence: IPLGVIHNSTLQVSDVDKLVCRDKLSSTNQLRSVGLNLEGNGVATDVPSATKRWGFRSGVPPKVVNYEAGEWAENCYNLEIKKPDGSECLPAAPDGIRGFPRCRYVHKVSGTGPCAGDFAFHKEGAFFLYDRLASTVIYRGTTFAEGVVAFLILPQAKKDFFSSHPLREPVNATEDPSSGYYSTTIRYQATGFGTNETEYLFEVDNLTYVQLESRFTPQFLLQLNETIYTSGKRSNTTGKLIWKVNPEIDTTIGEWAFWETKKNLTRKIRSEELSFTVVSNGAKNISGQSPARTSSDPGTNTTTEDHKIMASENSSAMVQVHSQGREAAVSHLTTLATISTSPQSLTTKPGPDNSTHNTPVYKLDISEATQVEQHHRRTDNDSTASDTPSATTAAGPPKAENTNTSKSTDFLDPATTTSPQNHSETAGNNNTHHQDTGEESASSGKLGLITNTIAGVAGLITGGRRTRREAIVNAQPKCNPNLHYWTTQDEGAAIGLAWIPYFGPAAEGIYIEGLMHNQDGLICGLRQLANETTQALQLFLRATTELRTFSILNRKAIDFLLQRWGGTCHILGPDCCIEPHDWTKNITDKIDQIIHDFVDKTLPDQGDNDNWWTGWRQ

T2: thermolysin-cleaved GP (GPCL) (Ebola virus (EBOV), UniProt Q05320 33-190; Q05320 502-650)
T2 sequence 1: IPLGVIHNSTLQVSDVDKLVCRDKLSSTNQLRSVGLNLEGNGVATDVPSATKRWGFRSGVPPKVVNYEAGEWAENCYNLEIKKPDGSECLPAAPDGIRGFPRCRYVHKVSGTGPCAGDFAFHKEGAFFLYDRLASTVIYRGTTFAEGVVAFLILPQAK
T2 sequence 2: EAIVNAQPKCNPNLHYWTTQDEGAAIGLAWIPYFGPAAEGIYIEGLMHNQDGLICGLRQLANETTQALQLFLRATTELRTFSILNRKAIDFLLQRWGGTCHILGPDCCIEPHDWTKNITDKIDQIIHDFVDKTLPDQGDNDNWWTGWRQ


Assays:
[1] = target: T1, Ebola virus (EBOV) glycoprotein (GP), …; assay: cell-based or functional assay
[2] = target: T2, thermolysin-cleaved GP (GPCL); assay: ELISA
[3] = target: T2, thermolysin-cleaved GP (GPCL); assay: biolayer interferometry

Row | Binder | EC50 of neutralization of luciferase-expressing VSV pseudotype on Vero cells [1] [µg/mL] | EC50 [2] [nM] | Kd [3] [nM] | koff [3] [s⁻¹] | kon [3] [M⁻¹ s⁻¹]
1 | m8C4 (antibody, V domains shown) VH: EVQLQESGPELKKPGETVKISCKASGYTFTTYGMSWVKQAPGKGLKWMGRINTYSGVPTYADEFKGRFAFSLENSASTAYLQINNLKNEDTATYFCARGDGGHWFANWGQGTLVTVSA VL: DIQMTQSPSSLSASLGGKVTITCKASQDINKNIAWYQHKPGKGPRLLIWYKSALQPGIPSRFSGSGSGRDYSFSISNLEPEDIATYSCLQYDNLPPTFGGGTKLEIKR | > 10 |  |  |  | 
2 | CA45 (antibody, V domains shown) VH: QVQLQEWGEGLVKPSETLSLTCAVYGGSISGYYHWNWIRLPPGKGLEWIGNIDNSASTNYNPSLKTRVTISKDTSKNQISLKVRSLTAADTAVYYCARDPGFTIFGVVITSWSGLDSWGQGAVVTVSS VL: DIQMTQSPSSLSASVGDTVTITCRASQSISNNLAWYQQRPRRAPQLLIYAASNLASGVPSRFSGSGSGTDFTLTISSLQAEDFAAYYCQQHNTLPLTFGGGTKVEI |  | 0.06 | < 0.006 | < 1e-07 | 16000

From patent US20190381162A1 (INTEGRATED BIOTHERAPEUTICS, published 2019)
